Assay [1] deals with BRCA1 tBRCT F1662R mutant (human) (UniProt P38398). Put plainly: MST.
Assay [2] addresses BRCA1 tBRCT L1701K mutant (human) (UniProt P38398). Put plainly: MST.

Consider BACH1 phosphopeptide, for which the Kd in assay [1] came out at 860 nM; in assay [2], 1960 nM.

Broadly, the Kd is a measure of binding affinity in units of concentration. Read a low Kd as a tighter complex.

For the origin of these results see article doi:10.1101/555623.
